# Measurements published in US20200024330A1.
# How the values were obtained:
# Assay in all cases: cell-based or functional assay
# [1] = molecular target: HIV-1 Env of isolate MGRM-AG-001 (HIV-1)
# [2] = molecular target: HIV-1 Env of isolate MGRM-Chronic-B-012 (HIV-1)
# [3] = molecular target: HIV-1 92BR020 envelope glycoprotein (Env) on pseudovirus (HIV-1)
# [4] = molecular target: HIV-1 Env of isolate MGRM-G-009 (HIV-1)
# [5] = molecular target: HIV-1 NL43 envelope glycoprotein (Env) on pseudovirus (HIV-1)
# [6] = molecular target: HIV-1 92TH021 envelope glycoprotein (Env) on pseudovirus (HIV-1)
# [7] = molecular target: HIV-1 Env of isolate MGRM-Chronic-B-018 (HIV-1)
# [8] = molecular target: HIV-1 Env of isolate MGRM-AE-007 (HIV-1)
# [9] = molecular target: HIV-1 Env of isolate MGRM-AG-012 (HIV-1)
# [10] = molecular target: HIV-1 Env of isolate MGRM-AG-003 (HIV-1)
# [11] = molecular target: HIV-1 Env of isolate MGRM-AG-009 (HIV-1)
# [12] = molecular target: HIV-1 Env of isolate MGRM-AE-005 (HIV-1)
# [13] = molecular target: HIV-1 Env of isolate MGRM-Chronic-B-023 (HIV-1)
# [14] = molecular target: HIV-1 Env of isolate MGRM-AG-002 (HIV-1)
# [15] = molecular target: HIV-1 Env of isolate MGRM-Chronic-B-020 (HIV-1)
# [16] = molecular target: HIV-1 Env of isolate MGRM-AE-006 (HIV-1)
# [17] = molecular target: HIV-1 Env of isolate JRFL (HIV-1)
# [18] = molecular target: HIV-1 92RW020 envelope glycoprotein (Env) on pseudovirus (HIV-1)
# [19] = molecular target: HIV-1 Env of isolate MGRM-AG-013 (HIV-1)
# [20] = molecular target: HIV-1 Env of pseudovirus APV_13, clade B (HIV-1)
# [21] = molecular target: HIV-1 Env of isolate MGRM-AG-008 (HIV-1)
# [22] = molecular target: HIV-1 Env of isolate MGRM-Chronic-B-011 (HIV-1)
# [23] = molecular target: HIV-1 MGRM-A-012 envelope glycoprotein (Env) (HIV-1)
# [24] = molecular target: HIV-1 Env of isolate MGRM-AG-005 (HIV-1)
# [25] = molecular target: aMLV envelope (negative control pseudovirus)
# [26] = molecular target: HIV-1 Env of isolate MGRM-AG-006 (HIV-1)
# [27] = molecular target: HIV-1 Env of isolate MGRM-G-006 (HIV-1)
# [28] = molecular target: HIV-1 Env of isolate MGRM-Chronic-B-024 (HIV-1)
# [29] = molecular target: HIV-1 Env of isolate MGRM-AG-011 (HIV-1)
# [30] = molecular target: HIV-1 Env of isolate MGRM-Chronic-B-010 (HIV-1)
# [31] = molecular target: HIV-1 Env of isolate MGRM-AE-008 (HIV-1)
# [32] = molecular target: HIV-1 Env of isolate MGRM-G-004 (HIV-1)
# [33] = molecular target: HIV-1 Env of isolate MGRM-Chronic-B-017 (HIV-1)
# [34] = molecular target: HIV-1 Env of isolate MGRM-AE-004 (HIV-1)
# [35] = molecular target: HIV-1 Env of isolate MGRM-G-001 (HIV-1)
# [36] = molecular target: HIV-1 92UG024 envelope glycoprotein (Env) on pseudovirus (HIV-1)
Substance,"IC50 (µg/ml), pseudovirus neutralization [1] [µg/mL]","IC50 (µg/ml), pseudovirus neutralization [2] [µg/mL]","IC50 (µg/ml), pseudovirus neutralization [4] [µg/mL]","IC50 (µg/ml), pseudovirus neutralization [7] [µg/mL]","IC50 (µg/ml), pseudovirus neutralization [8] [µg/mL]","IC50 (µg/ml), pseudovirus neutralization [9] [µg/mL]","IC50 (µg/ml), pseudovirus neutralization [10] [µg/mL]","IC50 (µg/ml), pseudovirus neutralization [11] [µg/mL]","IC50 (µg/ml), pseudovirus neutralization [12] [µg/mL]","IC50 (µg/ml), pseudovirus neutralization [13] [µg/mL]","IC50 (µg/ml), pseudovirus neutralization [14] [µg/mL]","IC50 (µg/ml), pseudovirus neutralization [15] [µg/mL]","IC50 (µg/ml), pseudovirus neutralization [16] [µg/mL]","IC50 (µg/ml), pseudovirus neutralization [17] [µg/mL]","IC50 (µg/ml), pseudovirus neutralization [19] [µg/mL]","IC50 (µg/ml), pseudovirus neutralization [20] [µg/mL]","IC50 (µg/ml), pseudovirus neutralization [21] [µg/mL]","IC50 (µg/ml), pseudovirus neutralization [22] [µg/mL]","IC50 (µg/ml), pseudovirus neutralization [23] [µg/mL]","IC50 (µg/ml), pseudovirus neutralization [24] [µg/mL]",also measured
2G12 (antibody),0.69,0.22,> 50,> 50,> 50,1.94,> 50,> 50,> 50,0.16,0.54,0.2,> 50,1.45,0.95,9.24,> 50,> 50,> 50,> 50,"IC90 (pseudovirus neutralization) [3]: 24.1 µg/mL; IC90 (pseudovirus neutralization) [5]: 15.8 µg/mL; IC90 (pseudovirus neutralization) [6]: > 50 µg/mL; IC90 (pseudovirus neutralization) [18]: 6.23 µg/mL; IC50 (µg/ml), pseudovirus neutralization [25]: > 50 µg/mL; IC50 (µg/ml), pseudovirus neutralization [26]: 3.92 µg/mL; IC50 (µg/ml), pseudovirus neutralization [27]: > 50 µg/mL; IC50 (µg/ml), pseudovirus neutralization [28]: > 50 µg/mL; IC50 (µg/ml), pseudovirus neutralization [29]: > 50 µg/mL; IC50 (µg/ml), pseudovirus neutralization [30]: 1.5 µg/mL; IC50 (µg/ml), pseudovirus neutralization [31]: > 50 µg/mL; IC50 (µg/ml), pseudovirus neutralization [32]: > 50 µg/mL; IC50 (µg/ml), pseudovirus neutralization [33]: > 50 µg/mL; IC50 (µg/ml), pseudovirus neutralization [34]: > 50 µg/mL; IC50 (µg/ml), pseudovirus neutralization [35]: > 50 µg/mL; IC90 (pseudovirus neutralization) [36]: 7.57 µg/mL"
1495_C14 (PGC14) (antibody),> 50,> 50,> 50,> 50,> 50,> 50,> 50,> 50,> 50,> 50,> 50,> 50,> 50,> 50,> 50,> 50,45,> 50,> 50,> 50,"IC50 (µg/ml), pseudovirus neutralization [25]: > 50 µg/mL; IC50 (µg/ml), pseudovirus neutralization [26]: > 50 µg/mL; IC50 (µg/ml), pseudovirus neutralization [27]: > 50 µg/mL; IC50 (µg/ml), pseudovirus neutralization [28]: > 50 µg/mL; IC50 (µg/ml), pseudovirus neutralization [29]: > 50 µg/mL; IC50 (µg/ml), pseudovirus neutralization [30]: 27 µg/mL; IC50 (µg/ml), pseudovirus neutralization [31]: > 50 µg/mL; IC50 (µg/ml), pseudovirus neutralization [32]: > 50 µg/mL; IC50 (µg/ml), pseudovirus neutralization [33]: > 50 µg/mL; IC50 (µg/ml), pseudovirus neutralization [34]: > 50 µg/mL; IC50 (µg/ml), pseudovirus neutralization [35]: > 50 µg/mL"
